Source: US20220306695A1, “COMPSTATIN ANALOGUES AND THEIR MEDICAL USES” (priority 2019, published 2022)
Like-named read-outs stand apart in the source and are kept apart here. Blank lines part the entries; values can stand above or below the molecule they belong to. Starred links: 1 amine or outer side, 2 acyl side, 3 side chain; linkers in the order of their positions; H or OH if unused. Positions of bridges follow the written chain, without caps; N, C: chain ends. Non-standard residues stand in square brackets, D forms with d. Residues, ends and D or L forms follow the SMILES beside them. Groups on a side chain read outwards from the residue. *: point of attachment. C20 diacid = O=C(O)CCCCCCCCCCCCCCCCCCC(=O)*; Trp(1-Me) = Cn1cc(C[C@H](N)C(=O)O)c2ccccc21; γGlu = O=C(O)[C@H](CCC(=O)[*:2])N[*:1]; 1Nal = N[C@@H](Cc1cccc2ccccc12)C(=O)O; 2Nal = N[C@@H](Cc1ccc2ccccc2c1)C(=O)O; AEEA = NCCOCCOCC(=O)O; Sar = CNCC(=O)O

Experiments:
Human C3 [1] = biological target: T1, Human C3 (Homo sapiens, UniProt P01024); assay: Affinity measurement by surface plasmon resonance (SPR) with immobilized C3; type: binding; details: Table 7; immobilized C3, 25° C., pH 7.4
T1 construct: purchased Complement tech A1 13c (so in the source)
Procedure: Surface plasmon resonance (SPR) was used to characterize peptides with respect to their binding affinity (Kd) for C3. Human C3 (Complement tech cat #A1 13c) was immobilised on individual flow cells of CM5 sensor chips (GE Healthcare) using standard amine coupling to a density of approximately 3000 resonance units (RU) in a buffer consisting of 10 mM phosphate pH 7.4, 150 mM NaCl, 0.05% Tween20. For interaction experiments a multi-cycle experiment approach was used and performed using either a Biacore™ T200 or Biacore™ X100 instrument (GE Healthcare) at 25° C. Peptides were injected in increasing concentration series (5-8 different concentrations) for 60-120 s at a flow rate of 30 μL/min in a buffer consisting of 10 mM Tris buffer at pH 7.4, with 150 mM NaCl and 0.05% Tween20. This was followed by a dissociation period for up to 10 min. […] Sensorgrams were double-referenced (reference surface, blanks) prior to analysis of the kinetic profiles by globally fitting data to a 1:1 Langmuir binding model to obtain association and dissociation rates for calculation of the equilibrium dissociation constant Kd. Each peptide was tested at in at least 2 independent experiments.

[2] = test system: classical complement pathway; assay: In vitro haemolysis assay (inhibition of classical complement pathway); type: cell-based, human
Procedure, shortened: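 Serially diluted compound (9 points) was preincubated 15 min at room temperature with diluted human serum, titrated per batch to give 70-90% maximal haemolysis, in Tris/casein buffer pH 7.4 with Mg2+/Ca2+. Antibody-sensitized sheep erythrocytes were then added for 30 min at 37° C, and the reaction was stopped with EDTA. Haemolysis was read at A405, with IC50 from 4PL fit.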

Human C3 [3] = biological target: T2, Human C3 (human, UniProt P01024 23-1663); assay: cell-based or functional assay
T2 sequence (P01024 23-1663 limits assumed): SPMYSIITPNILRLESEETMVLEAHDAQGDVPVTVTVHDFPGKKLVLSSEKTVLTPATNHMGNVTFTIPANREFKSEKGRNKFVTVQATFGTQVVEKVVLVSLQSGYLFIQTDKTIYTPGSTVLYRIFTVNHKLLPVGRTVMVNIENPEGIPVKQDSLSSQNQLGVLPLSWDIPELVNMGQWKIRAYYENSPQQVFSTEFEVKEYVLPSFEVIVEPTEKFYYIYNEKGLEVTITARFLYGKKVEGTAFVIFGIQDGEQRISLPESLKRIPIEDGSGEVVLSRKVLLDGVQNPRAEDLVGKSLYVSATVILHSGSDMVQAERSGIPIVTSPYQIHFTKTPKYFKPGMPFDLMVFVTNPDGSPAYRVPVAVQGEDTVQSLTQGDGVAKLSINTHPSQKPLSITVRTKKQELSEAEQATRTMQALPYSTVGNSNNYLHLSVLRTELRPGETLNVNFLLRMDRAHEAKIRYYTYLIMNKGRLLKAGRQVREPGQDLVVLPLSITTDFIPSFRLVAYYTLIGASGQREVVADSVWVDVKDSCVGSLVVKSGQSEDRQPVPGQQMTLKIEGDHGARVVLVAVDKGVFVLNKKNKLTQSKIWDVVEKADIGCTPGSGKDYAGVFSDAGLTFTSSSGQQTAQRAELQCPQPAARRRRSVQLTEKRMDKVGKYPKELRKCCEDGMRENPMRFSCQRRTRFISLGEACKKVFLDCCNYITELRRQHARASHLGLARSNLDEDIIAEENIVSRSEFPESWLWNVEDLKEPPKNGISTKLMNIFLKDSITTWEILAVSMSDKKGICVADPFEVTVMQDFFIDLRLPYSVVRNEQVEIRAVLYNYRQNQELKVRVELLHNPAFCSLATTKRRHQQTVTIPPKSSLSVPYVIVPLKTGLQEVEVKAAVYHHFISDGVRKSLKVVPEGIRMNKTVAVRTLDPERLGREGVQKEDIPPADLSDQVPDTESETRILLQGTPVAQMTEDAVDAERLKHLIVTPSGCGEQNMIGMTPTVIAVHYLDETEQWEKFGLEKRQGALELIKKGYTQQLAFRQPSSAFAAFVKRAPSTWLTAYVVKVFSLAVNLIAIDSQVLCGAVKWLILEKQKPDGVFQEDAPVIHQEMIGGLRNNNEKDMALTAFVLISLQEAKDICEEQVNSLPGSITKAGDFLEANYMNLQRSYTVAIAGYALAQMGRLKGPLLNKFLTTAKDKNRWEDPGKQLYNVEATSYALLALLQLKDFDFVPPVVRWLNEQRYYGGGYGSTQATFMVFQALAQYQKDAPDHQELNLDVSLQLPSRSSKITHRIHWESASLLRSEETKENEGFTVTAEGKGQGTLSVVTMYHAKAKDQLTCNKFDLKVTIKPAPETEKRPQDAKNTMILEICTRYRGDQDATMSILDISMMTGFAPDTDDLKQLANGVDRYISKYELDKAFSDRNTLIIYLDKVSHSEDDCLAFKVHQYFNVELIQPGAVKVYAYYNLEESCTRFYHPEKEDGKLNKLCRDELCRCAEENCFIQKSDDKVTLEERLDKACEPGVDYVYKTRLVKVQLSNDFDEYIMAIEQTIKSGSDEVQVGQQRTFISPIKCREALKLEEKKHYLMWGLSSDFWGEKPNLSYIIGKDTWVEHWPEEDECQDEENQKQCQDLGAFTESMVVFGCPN

Human C3 [4] = biological target: T2, Human C3; assay: SPR, C3 immobilised
Procedure, shortened: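 Peptide series (5-8 concentrations, 60-120 s, up to 10 min dissociation, Tris pH 7.4 running buffer) flowed over ~3000 RU amine-coupled human C3; MgCl₂ regeneration; at least two independent runs.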

[5] = Table 3, human serum, sensitized sheep red blood cells, read-out: IC50[nM], in vitro analysis of inhibition of hemolysis

Kd (Human C3 [1]): 16 nM
Molecule: CC[C@H](C)[C@H](NC(C)=O)C(=O)N[C@H]1CSSC[C@@H](C(=O)N[C@H](C(N)=O)[C@@H](C)O)NC(=O)[C@H](CCCNC(=N)N)NC(=O)[C@H](Cc2c[nH]cn2)NC(=O)[C@H](CCC(=O)O)NC(=O)CNC(=O)[C@H](Cc2c[nH]c3ccccc23)NC(=O)[C@H](CC(=O)O)NC(=O)[C@H](CCC(N)=O)NC(=O)[C@H](Cc2c[nH]c3ccccc23)NC(=O)[C@H]([C@@H](C)CC)NC1=O [Compound 2] (Ac-ICIWQDWGEHRCT-NH2; disulfide 2-12)
IC50 [2, 5]: < 100 nM | IC50 ([2]; Table 4, valine 3 versus isoleucine 3 pairs, read-out: CP hemolysis IC50): 94 nM | IC50 ([2]; Table 5, different residues at position 3 of Ac-IC(1)XWQDWGEHRC(1)T-NH2, read-out: IC50, CP hemolysis): < 100 nM

Kd (Human C3 [1]): 6.5 nM
Molecule: CC[C@H](C)[C@@H]1NC(=O)[C@@H](NC(=O)[C@H](Cc2ccccc2)NC(=O)[C@H](CCC(=O)O)NC(=O)[C@H](CO)NC(C)=O)CSSC[C@@H](C(=O)N(C)CC(=O)N[C@@H](CCC(=O)O)C(=O)NCC(=O)N[C@@H](CCC(=O)O)C(=O)NCCOCCOCC(=O)NCCOCCOCC(=O)N[C@@H](CCCCNC(=O)CC[C@H](NC(=O)CNC(=O)CC[C@H](NC(=O)CCCCCCCCCCCCCCCCCCC(=O)O)C(=O)O)C(=O)O)C(N)=O)NC(=O)[C@H](CCCNC(=N)N)NC(=O)[C@H](Cc2c[nH]cn2)NC(=O)[C@H](CCC(=O)O)NC(=O)CNC(=O)[C@H](Cc2c[nH]c3ccccc23)NC(=O)[C@H](CC(=O)O)NC(=O)[C@H](CCC(N)=O)NC(=O)[C@H](Cc2cn(C)c3ccccc23)NC1=O [Compound 128] (Ac-SEFCI[Trp(1-Me)]QDWGEHRC[Sar]EGE[AEEA][AEEA]K([γGlu-Gly-γGlu-C20 diacid])-NH2; disulfide 4-14)
IC50 [2, 5]: < 100 nM

Kd (Human C3 [4]): 1.3 nM
B1: Compound 85 (peptide)
peptide: Ac-EFCI[Trp(1-Me)]QDWGEHRCES-NH2
modifications: disulfide 3-13
SMILES: CC[C@H](C)[C@@H]1NC(=O)[C@@H](NC(=O)[C@H](Cc2ccccc2)NC(=O)[C@H](CCC(=O)O)NC(C)=O)CSSC[C@@H](C(=O)N[C@@H](CCC(=O)O)C(=O)N[C@@H](CO)C(N)=O)NC(=O)[C@H](CCCNC(=N)N)NC(=O)[C@H](Cc2c[nH]cn2)NC(=O)[C@H](CCC(=O)O)NC(=O)CNC(=O)[C@H](Cc2c[nH]c3ccccc23)NC(=O)[C@H](CC(=O)O)NC(=O)[C@H](CCC(N)=O)NC(=O)[C@H](Cc2cn(C)c3ccccc23)NC1=O
IC50[nM], inhibition of hemolysis (Human C3 [3]): < 100 nM

Kd (Human C3 [4]): 9.7 nM
B2: Compound 81 (peptide)
peptide: Ac-SE[Sar]CI[Trp(1-Me)]QDWGEHRC[Sar]EA-NH2
modifications: disulfide 4-14
SMILES: CC[C@H](C)[C@@H]1NC(=O)[C@@H](NC(=O)CN(C)C(=O)[C@H](CCC(=O)O)NC(=O)[C@H](CO)NC(C)=O)CSSC[C@@H](C(=O)N(C)CC(=O)N[C@@H](CCC(=O)O)C(=O)N[C@@H](C)C(N)=O)NC(=O)[C@H](CCCNC(=N)N)NC(=O)[C@H](Cc2c[nH]cn2)NC(=O)[C@H](CCC(=O)O)NC(=O)CNC(=O)[C@H](Cc2c[nH]c3ccccc23)NC(=O)[C@H](CC(=O)O)NC(=O)[C@H](CCC(N)=O)NC(=O)[C@H](Cc2cn(C)c3ccccc23)NC1=O
IC50[nM], inhibition of hemolysis (Human C3 [3]): < 100 nM

Kd (Human C3 [4]): 2.6 nM
B3: Compound 86 (peptide)
peptide: Ac-SEFCI[Trp(1-Me)]QDWGEHKC[Sar]EA-NH2
modifications: disulfide 4-14
SMILES: CC[C@H](C)[C@@H]1NC(=O)[C@@H](NC(=O)[C@H](Cc2ccccc2)NC(=O)[C@H](CCC(=O)O)NC(=O)[C@H](CO)NC(C)=O)CSSC[C@@H](C(=O)N(C)CC(=O)N[C@@H](CCC(=O)O)C(=O)N[C@@H](C)C(N)=O)NC(=O)[C@H](CCCCN)NC(=O)[C@H](Cc2c[nH]cn2)NC(=O)[C@H](CCC(=O)O)NC(=O)CNC(=O)[C@H](Cc2c[nH]c3ccccc23)NC(=O)[C@H](CC(=O)O)NC(=O)[C@H](CCC(N)=O)NC(=O)[C@H](Cc2cn(C)c3ccccc23)NC1=O
IC50[nM], inhibition of hemolysis (Human C3 [3]): < 100 nM

Kd (Human C3 [4]): 3.3 nM
B4: Compound 43 (peptide)
peptide: Ac-FCIWQDWGEHRCTGAE-NH2
modifications: disulfide 2-12
SMILES: CC[C@H](C)[C@@H]1NC(=O)[C@@H](NC(=O)[C@H](Cc2ccccc2)NC(C)=O)CSSC[C@@H](C(=O)N[C@H](C(=O)NCC(=O)N[C@@H](C)C(=O)N[C@@H](CCC(=O)O)C(N)=O)[C@@H](C)O)NC(=O)[C@H](CCCNC(=N)N)NC(=O)[C@H](Cc2c[nH]cn2)NC(=O)[C@H](CCC(=O)O)NC(=O)CNC(=O)[C@H](Cc2c[nH]c3ccccc23)NC(=O)[C@H](CC(=O)O)NC(=O)[C@H](CCC(N)=O)NC(=O)[C@H](Cc2c[nH]c3ccccc23)NC1=O
IC50[nM], inhibition of hemolysis (Human C3 [3]): < 100 nM

Kd (Human C3 [4]): 3.2 nM
B5: Compound 49 (peptide)
peptide: Ac-EGSAICI[Trp(1-Me)]QDWGEHRC[Sar]E-NH2
modifications: disulfide 6-16
SMILES: CC[C@H](C)[C@H](NC(=O)[C@H](C)NC(=O)[C@H](CO)NC(=O)CNC(=O)[C@H](CCC(=O)O)NC(C)=O)C(=O)N[C@H]1CSSC[C@@H](C(=O)N(C)CC(=O)N[C@@H](CCC(=O)O)C(N)=O)NC(=O)[C@H](CCCNC(=N)N)NC(=O)[C@H](Cc2c[nH]cn2)NC(=O)[C@H](CCC(=O)O)NC(=O)CNC(=O)[C@H](Cc2c[nH]c3ccccc23)NC(=O)[C@H](CC(=O)O)NC(=O)[C@H](CCC(N)=O)NC(=O)[C@H](Cc2cn(C)c3ccccc23)NC(=O)[C@H]([C@@H](C)CC)NC1=O
IC50[nM], inhibition of hemolysis (Human C3 [3]): < 100 nM

Kd (Human C3 [4]): 13 nM
B6: Compound 50 (peptide)
peptide: Ac-EGSAICI[2Nal]QDWGEHRC[Sar]E-NH2
modifications: disulfide 6-16
SMILES: CC[C@H](C)[C@H](NC(=O)[C@H](C)NC(=O)[C@H](CO)NC(=O)CNC(=O)[C@H](CCC(=O)O)NC(C)=O)C(=O)N[C@H]1CSSC[C@@H](C(=O)N(C)CC(=O)N[C@@H](CCC(=O)O)C(N)=O)NC(=O)[C@H](CCCNC(=N)N)NC(=O)[C@H](Cc2c[nH]cn2)NC(=O)[C@H](CCC(=O)O)NC(=O)CNC(=O)[C@H](Cc2c[nH]c3ccccc23)NC(=O)[C@H](CC(=O)O)NC(=O)[C@H](CCC(N)=O)NC(=O)[C@H](Cc2ccc3ccccc3c2)NC(=O)[C@H]([C@@H](C)CC)NC1=O
IC50[nM], inhibition of hemolysis (Human C3 [3]): < 100 nM

Kd (Human C3 [4]): 4.3 nM
B7: Compound 63 (peptide)
peptide: Ac-FCI[1Nal]QDWGEHRCTGAES-NH2
modifications: disulfide 2-12
SMILES: CC[C@H](C)[C@@H]1NC(=O)[C@@H](NC(=O)[C@H](Cc2ccccc2)NC(C)=O)CSSC[C@@H](C(=O)N[C@H](C(=O)NCC(=O)N[C@@H](C)C(=O)N[C@@H](CCC(=O)O)C(=O)N[C@@H](CO)C(N)=O)[C@@H](C)O)NC(=O)[C@H](CCCNC(=N)N)NC(=O)[C@H](Cc2c[nH]cn2)NC(=O)[C@H](CCC(=O)O)NC(=O)CNC(=O)[C@H](Cc2c[nH]c3ccccc23)NC(=O)[C@H](CC(=O)O)NC(=O)[C@H](CCC(N)=O)NC(=O)[C@H](Cc2cccc3ccccc23)NC1=O
IC50[nM], inhibition of hemolysis (Human C3 [3]): < 100 nM

Kd (Human C3 [4]): 0.3 nM
B8: Compound 73 (peptide)
peptide: H-[dY]FCI[Trp(1-Me)]QDW[Sar]EHRCTGAES-NH2
modifications: disulfide 3-13
SMILES: CC[C@H](C)[C@@H]1NC(=O)[C@@H](NC(=O)[C@H](Cc2ccccc2)NC(=O)[C@H](N)Cc2ccc(O)cc2)CSSC[C@@H](C(=O)N[C@H](C(=O)NCC(=O)N[C@@H](C)C(=O)N[C@@H](CCC(=O)O)C(=O)N[C@@H](CO)C(N)=O)[C@@H](C)O)NC(=O)[C@H](CCCNC(=N)N)NC(=O)[C@H](Cc2c[nH]cn2)NC(=O)[C@H](CCC(=O)O)NC(=O)CN(C)C(=O)[C@H](Cc2c[nH]c3ccccc23)NC(=O)[C@H](CC(=O)O)NC(=O)[C@H](CCC(N)=O)NC(=O)[C@H](Cc2cn(C)c3ccccc23)NC1=O
IC50[nM], inhibition of hemolysis (Human C3 [3]): < 100 nM
